In patent US11078465B2, “Alcohol dehydrogenase mutant and application thereof in synthesis of diaryl chiral alcohols” (Jiangnan University, priority 2018, dated 2021):

Key:
Assay type in all cases: biochemical
[1] = Substrate specificity, specific activity
Outline: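 Alcohol dehydrogenase mutants were assayed with 1.0 mM NADPH and 1.0 mM ketone substrate (CPMK or other prochiral carbonyls) in 100 mM sodium phosphate, pH 7.0, at 30° C. NADPH oxidation was followed at 340 nm; one U oxidizes 1 μmol NADPH per min (ε 6220).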

[2] = Stereoselectivity on different substrates; details: configuration in brackets
Outline: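 Reaction mixture extracted with ethyl acetate, dried organic phase redissolved in ethanol, then analysed by chiral liquid chromatography and gas chromatography. Values are transformation rate and ee, with ee from LC molar concentrations of (S)- and (R)-CPMA. Substrates were prochiral ketones reduced by alcohol dehydrogenase mutants.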

[3] = Asymmetric reduction in 20 mL biocatalytic system, conversion
[4] = Stereoselectivity on different substrates; details: configuration in brackets; remark: listed apart in the source
Outline: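 Alcohol dehydrogenase mutants reduced prochiral ketones, including CPMK, aryl pyridyl and diaryl ketones, acetophenones and keto esters. Reactions were extracted into ethyl acetate and redissolved in ethanol. Conversion and ee were determined by chiral liquid and gas chromatography, with ee calculated from (S)- and (R)-CPMA molar concentrations.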

[5] = Stereoselectivity (ee) of CPMK reduction, chiral liquid chromatography; details: product configuration in brackets
Outline: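 ee is calculated from the (S)-CPMA and (R)-CPMA molar concentrations measured by chiral liquid chromatography; conversion also by GC. Samples are ethyl acetate extracts of the reaction, dried and redissolved in ethanol.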

[6] = Kinetic analysis of alcohol dehydrogenase and mutants (NADPH oxidation, 340 nm, double reciprocal curve); details: substrate CPMK
Outline: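 His-tagged recombinant KpADH (wild type or mutant) purified by nickel affinity, desalted into Tris-HCl pH 7.0. Activity measured at 30° C in 100 mM sodium phosphate pH 7.0 with 1.0 mM NADPH and 1.0 mM CPMK by 340 nm NADPH absorbance decrease; kinetic parameters from double reciprocal plots over varied substrate and coenzyme concentrations.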

B1: E214Y/S237A: tyrosine for glutamate at position 214 and alanine for serine at position 237 of SEQ ID No. 2 (protein)
chain: MSVLISGASGYIAKHIVRVLLEQNYKVIGTVRSQDKADKLLKQYNNPNLSYEIVPEIANLDAFDDIFKKHGKEIKYVIHAASPVNFGAKDLEKDLVIPAINGTKNMFEAIKKYAPDTVERVVMTASYASIMTPHRQNDPTLTLDEETWNPVTEENAYENVFTAYCASKTFAEKEAWKFVKENSDAVKFKLTTIHPSFVFGPQNFDEDVTKKLNYTCEIINGLLHAPFDTKVEKTHFAQFIDVRDVAKTHVLGFQKDELINQRLLLCNGAFSQQDIVNVFNEDFPELKGQFPPEDKDTDLNKGVTGCKIDNEKTKKLLAFEFTPFHKTIHDTVYQILHKEGRV
modifications: Protein translated from synthetic DNA
**Q.** With B1 as the molecule, how does the specific activity ([1]; substrate [drawing 1]) read?
**A.** Its specific activity is 0.26 U/mg.

**Q.** And the specific activity ([1]; substrate [drawing 2])?
**A.** Its specific activity is 0.25 U/mg.

**Q.** And the specific activity ([1]; substrate [drawing 3])?
**A.** Its specific activity is 2.25 U/mg.

**Q.** And the specific activity ([1]; substrate [drawing 4])?
**A.** Its specific activity is 4.06 U/mg.

**Q.** What about the specific activity ([1]; substrate [drawing 5]) of the same molecule?
**A.** Its specific activity is 14.48 U/mg.

**Q.** And the specific activity ([1]; substrate [drawing 6], 4-chlorophenacyl chloride)?
**A.** Its specific activity is 25.70 U/mg.

**Q.** And the specific activity ([1]; substrate [drawing 7])?
**A.** Its specific activity is 22.02 U/mg.

**Q.** What about the specific activity ([1]; substrate [drawing 8]) of the same molecule?
**A.** Its specific activity is 22.61 U/mg.

**Q.** What about the specific activity ([1]; substrate [drawing 9], ethyl 4-chloro-3-oxobutanoate) of the same molecule?
**A.** Its specific activity is 7.74 U/mg.

**Q.** What about the “Stereoselectivity (ee)” value ([2]; substrate [drawing 13]) of the same molecule?
**A.** The value was 18.2 (R).

**Q.** What about the “Stereoselectivity (ee)” value ([2]; substrate [drawing 14], likely CPMK (values partly match Table 4)) of the same molecule?
**A.** Its value is 99.1 (R).

**Q.** What about the “Stereoselectivity (ee)” value ([2]; substrate [drawing 15]) of the same molecule?
**A.** The value was 89.3 (S).

**Q.** What about the “Stereoselectivity (ee)” value ([2]; substrate [drawing 18]) of the same molecule?
**A.** Its value is 79.3 (S).

**Q.** What about the Conversion rate ([3]; 4-nitroacetophenone 10 mM, 1 h) of the same molecule?
**A.** The Conversion rate was 32%.

**Q.** And the Conversion rate ([3]; 4-nitroacetophenone 10 mM, 2 h)?
**A.** The Conversion rate was 48%.

**Q.** What about the Conversion rate ([3]; 4-nitroacetophenone 10 mM, 3 h) of the same molecule?
**A.** Its Conversion rate is 60%.

**Q.** What about the Conversion rate ([3]; 4-nitroacetophenone 10 mM, 4 h) of the same molecule?
**A.** The Conversion rate was 85%.

**Q.** What about the Conversion rate ([3]; 4-nitroacetophenone 10 mM, 6 h) of the same molecule?
**A.** The Conversion rate was 95%.

**Q.** What about the Conversion rate ([3]; 4-nitroacetophenone 10 mM, 8 h) of the same molecule?
**A.** Its Conversion rate is 99.8%.

**Q.** What about the Conversion rate ([3]; 4-nitroacetophenone 10 mM, 12 h) of the same molecule?
**A.** Its Conversion rate is greater than 99.9%.

**Q.** What about the Conversion rate ([3]; 4-nitroacetophenone 10 mM, 24 h) of the same molecule?
**A.** Its Conversion rate is greater than 99.9%.

**Q.** What about the Conversion rate ([3]; 4-nitroacetophenone 20 mM, 1 h) of the same molecule?
**A.** Its Conversion rate is 22%.

**Q.** What about the Conversion rate ([3]; 4-nitroacetophenone 20 mM, 2 h) of the same molecule?
**A.** Its Conversion rate is 35.5%.

**Q.** And the Conversion rate ([3]; 4-nitroacetophenone 20 mM, 3 h)?
**A.** The Conversion rate was 55.8%.

**Q.** And the Conversion rate ([3]; 4-nitroacetophenone 20 mM, 4 h)?
**A.** Its Conversion rate is 69.5%.

**Q.** And the Conversion rate ([3]; 4-nitroacetophenone 20 mM, 6 h)?
**A.** The Conversion rate was 90.4%.

**Q.** What about the Conversion rate ([3]; 4-nitroacetophenone 20 mM, 8 h) of the same molecule?
**A.** The Conversion rate was 95.6%.

**Q.** And the Conversion rate ([3]; 4-nitroacetophenone 20 mM, 12 h)?
**A.** Its Conversion rate is 99.2%.

**Q.** And the Conversion rate ([3]; 4-nitroacetophenone 20 mM, 24 h)?
**A.** The Conversion rate was 99.5%.

**Q.** And the Conversion rate ([3]; 4-nitroacetophenone 50 mM, 1 h)?
**A.** The Conversion rate was 10.5%.

**Q.** And the Conversion rate ([3]; 4-nitroacetophenone 50 mM, 2 h)?
**A.** The Conversion rate was 22.5%.

**Q.** What about the Conversion rate ([3]; 4-nitroacetophenone 50 mM, 3 h) of the same molecule?
**A.** The Conversion rate was 35.9%.

**Q.** And the Conversion rate ([3]; 4-nitroacetophenone 50 mM, 4 h)?
**A.** Its Conversion rate is 49.5%.

**Q.** What about the Conversion rate ([3]; 4-nitroacetophenone 50 mM, 6 h) of the same molecule?
**A.** The Conversion rate was 60.9%.

**Q.** And the Conversion rate ([3]; 4-nitroacetophenone 50 mM, 8 h)?
**A.** The Conversion rate was 82.6%.

**Q.** What about the Conversion rate ([3]; 4-nitroacetophenone 50 mM, 12 h) of the same molecule?
**A.** The Conversion rate was 85.5%.

**Q.** What about the Conversion rate ([3]; 4-nitroacetophenone 50 mM, 24 h) of the same molecule?
**A.** The Conversion rate was 86.5%.

**Q.** And the “ee in asymmetric synthesis of (R)-CPMA” value ([3]; 20 mL biocatalytic system, 30° C., pH 7.5)?
**A.** Its value is 99.1%.

**Q.** What about the Conversion rate ([3]; CPMK 100 mM, 1 h) of the same molecule?
**A.** The Conversion rate was 66%.

**Q.** What about the Conversion rate ([3]; CPMK 100 mM, 2 h) of the same molecule?
**A.** The Conversion rate was 80%.

**Q.** What about the Conversion rate ([3]; CPMK 100 mM, 3 h) of the same molecule?
**A.** Its Conversion rate is 89.5%.

**Q.** What about the Conversion rate ([3]; CPMK 100 mM, 4 h) of the same molecule?
**A.** The Conversion rate was 94%.

**Q.** What about the Conversion rate ([3]; CPMK 100 mM, 6 h) of the same molecule?
**A.** The Conversion rate was 96.6%.

**Q.** And the Conversion rate ([3]; CPMK 100 mM, 8 h)?
**A.** Its Conversion rate is 99.5%.

**Q.** And the Conversion rate ([3]; CPMK 100 mM, 12 h)?
**A.** The Conversion rate was greater than 99.9%.

**Q.** What about the Conversion rate ([3]; CPMK 100 mM, 24 h) of the same molecule?
**A.** The Conversion rate was greater than 99.9%.

**Q.** What about the Conversion rate ([3]; CPMK 200 mM, 1 h) of the same molecule?
**A.** The Conversion rate was 45.5%.

**Q.** And the Conversion rate ([3]; CPMK 200 mM, 2 h)?
**A.** The Conversion rate was 65.5%.

**Q.** And the Conversion rate ([3]; CPMK 200 mM, 3 h)?
**A.** Its Conversion rate is 75.9%.

**Q.** And the Conversion rate ([3]; CPMK 200 mM, 4 h)?
**A.** The Conversion rate was 88.8%.

**Q.** What about the Conversion rate ([3]; CPMK 200 mM, 6 h) of the same molecule?
**A.** The Conversion rate was 95.6%.

**Q.** And the Conversion rate ([3]; CPMK 200 mM, 8 h)?
**A.** Its Conversion rate is 99.1%.

**Q.** And the Conversion rate ([3]; CPMK 200 mM, 12 h)?
**A.** Its Conversion rate is 99.7%.

**Q.** What about the Conversion rate ([3]; CPMK 200 mM, 24 h) of the same molecule?
**A.** Its Conversion rate is greater than 99.9%.

**Q.** What about the Conversion rate ([3]; CPMK 500 mM, 1 h) of the same molecule?
**A.** Its Conversion rate is 25.5%.

**Q.** What about the Conversion rate ([3]; CPMK 500 mM, 2 h) of the same molecule?
**A.** Its Conversion rate is 33.5%.

**Q.** What about the Conversion rate ([3]; CPMK 500 mM, 3 h) of the same molecule?
**A.** The Conversion rate was 45.8%.

**Q.** What about the Conversion rate ([3]; CPMK 500 mM, 4 h) of the same molecule?
**A.** Its Conversion rate is 59.9%.

**Q.** And the Conversion rate ([3]; CPMK 500 mM, 6 h)?
**A.** The Conversion rate was 77.9%.

**Q.** And the Conversion rate ([3]; CPMK 500 mM, 8 h)?
**A.** Its Conversion rate is 90.2%.

**Q.** What about the Conversion rate ([3]; CPMK 500 mM, 12 h) of the same molecule?
**A.** Its Conversion rate is 95.7%.

**Q.** What about the Conversion rate ([3]; CPMK 500 mM, 24 h) of the same molecule?
**A.** Its Conversion rate is 99.5%.

**Q.** And the “substrate concentration that could be afforded” value ([3]; p-nitrobenzophenone)?
**A.** The value was 20 mM.

**Q.** And the “Stereoselectivity (ee)” value ([4]; substrate [drawing 10], acetophenone)?
**A.** The value was 32.1 (R).

**Q.** What about the “Stereoselectivity (ee)” value ([4]; substrate [drawing 11], 4-chloroacetophenone) of the same molecule?
**A.** The value was 97.9 (R).

**Q.** And the “Stereoselectivity (ee)” value ([4]; substrate [drawing 12], 4-chlorobenzoyl chloride)?
**A.** Its value is 61.6 (R).

**Q.** And the “Stereoselectivity (ee)” value ([4]; substrate [drawing 16], (4-bromophenyl)-(phenyl)-methanone)?
**A.** The value was 98.5 (S).

**Q.** What about the “Stereoselectivity (ee)” value ([4]; substrate [drawing 17], p-nitrobenzophenone) of the same molecule?
**A.** Its value is 99.2 (S).

**Q.** What about the e.e. [5] of the same molecule?
**A.** Its e.e. is 99.1 (R).

**Q.** What about the Kcat [6] of the same molecule?
**A.** Its Kcat is 15.80 ± 0.25 s⁻¹.

**Q.** What about the Km [6] of the same molecule?
**A.** The Km was 620 ± 20 µM.

**Q.** And the Vmax [6]?
**A.** The Vmax was 23.70 ± 0.37 µM/min/mg.
